The source of these data is paper PMC10400905.

In general, Kd refers to a measure of binding affinity in units of concentration. A low value points to a tighter complex. In general, stoichiometry N refers to the number of molecules, sites or subunits per partner or assembly.

For the assay, the target named is C4BPα1–2 (His6-tagged fragment of human C4b-binding protein) (human). The experiment in a line: ITC; 23 °C, PBS; 300 to 500 μM intact M2 or M2G in the syringe, 30 to 50 μM C4BPα1–2 in the cell; single-site model. For orientation: ITC needs no label: the signal is the heat of the interaction.

“M2G (M2_(53)G; M2 aa 53–86 fused to GCN4)” registered a Kd of 4 µM, a dH of -27 kcal/mol and a stoichiometry N of 0.51.

Take “intact M2 protein (Streptococcus pyogenes, strain AP2) (natural protein)”: the Kd came to 4 µM, the dH was -24 kcal/mol and the stoichiometry N is 0.5.
